From article PMC10095481, “Sequence-Dependent Interaction of the Human Papillomavirus E2 Protein with the DNA Elements on Its DNA Replication Origin” come the findings set out here.

The target in data set [1] is T1, HPV-11 E2 (full length) (Human papillomavirus type 11, UniProt P04015 1-367). The data set can be described thus: competition; unlabeled competitor vs 32P-BS1; EMSA: 10 mM HEPES pH 7.9, 50 mM NaCl, 4 mM MgCl2, 10% glycerol, 5 mM DTT, 0.2 mM EDTA, 0.1 mg/mL BSA, 10 ng/uL poly(dI-dC), 10 min 30 C. The following applies: protein: recombinant; tags: N-terminal His (pET28a); chain copies: 2; label: 32P.

For data set [2], the target named is T1, HPV-11 E2 (full length). The data set can be described thus: EMSA; apparent Kd; EMSA: 10 mM HEPES pH 7.9, 50 mM NaCl, 4 mM MgCl2, 10% glycerol, 5 mM DTT, 0.2 mM EDTA, 0.1 mg/mL BSA, 10 ng/uL poly(dI-dC), 10 min 30 C. The following applies: protein: recombinant; tags: N-terminal His (pET28a); chain copies: 2; label: 32P.
Data set [3] deals with T1, HPV-11 E2 (full length). The data set can be described thus: EMSA; spacer experiment WT (TTTT); EMSA: 10 mM HEPES pH 7.9, 50 mM NaCl, 4 mM MgCl2, 10% glycerol, 5 mM DTT, 0.2 mM EDTA, 0.1 mg/mL BSA, 10 ng/uL poly(dI-dC), 10 min 30 C. Conditions: protein: recombinant; tags: N-terminal His (pET28a); chain copies: 2; label: 32P.
For data set [4], the target named is T1, HPV-11 E2 (full length). The data set can be described thus: EMSA; 20 C; EMSA: 10 mM HEPES pH 7.9, 50 mM NaCl, 4 mM MgCl2, 10% glycerol, 5 mM DTT, 0.2 mM EDTA, 0.1 mg/mL BSA, 10 ng/uL poly(dI-dC), 10 min 30 C. Conditions: protein: recombinant; tags: N-terminal His (pET28a); chain copies: 2; label: 32P.
Data set [5] has as its target T1, HPV-11 E2 (full length). The data set can be described thus: EMSA; flank experiment WT; EMSA: 10 mM HEPES pH 7.9, 50 mM NaCl, 4 mM MgCl2, 10% glycerol, 5 mM DTT, 0.2 mM EDTA, 0.1 mg/mL BSA, 10 ng/uL poly(dI-dC), 10 min 30 C. The following applies: protein: recombinant; tags: N-terminal His (pET28a); chain copies: 2; label: 32P.
The target of data set [6] is T1, HPV-11 E2 (full length). The data set can be described thus: EMSA; 35 C; EMSA: 10 mM HEPES pH 7.9, 50 mM NaCl, 4 mM MgCl2, 10% glycerol, 5 mM DTT, 0.2 mM EDTA, 0.1 mg/mL BSA, 10 ng/uL poly(dI-dC), 10 min 30 C. The following applies: protein: recombinant; tags: N-terminal His (pET28a); chain copies: 2; label: 32P.
Data set [7] deals with T1, HPV-11 E2 (full length). The data set can be described thus: EMSA; 10 C; EMSA: 10 mM HEPES pH 7.9, 50 mM NaCl, 4 mM MgCl2, 10% glycerol, 5 mM DTT, 0.2 mM EDTA, 0.1 mg/mL BSA, 10 ng/uL poly(dI-dC), 10 min 30 C. Conditions: protein: recombinant; tags: N-terminal His (pET28a); chain copies: 2; label: 32P.
Data set [8] has as its target T1, HPV-11 E2 (full length). Description: EMSA; 0 C; EMSA: 10 mM HEPES pH 7.9, 50 mM NaCl, 4 mM MgCl2, 10% glycerol, 5 mM DTT, 0.2 mM EDTA, 0.1 mg/mL BSA, 10 ng/uL poly(dI-dC), 10 min 30 C. Conditions: protein: recombinant; tags: N-terminal His (pET28a); chain copies: 2; label: 32P.
For data set [9], the target named is T1, HPV-11 E2 (full length). Description: EMSA; 30 C; EMSA: 10 mM HEPES pH 7.9, 50 mM NaCl, 4 mM MgCl2, 10% glycerol, 5 mM DTT, 0.2 mM EDTA, 0.1 mg/mL BSA, 10 ng/uL poly(dI-dC), 10 min 30 C. The following applies: protein: recombinant; tags: N-terminal His (pET28a); chain copies: 2; label: 32P.
The target of data set [10] is T1, HPV-11 E2 (full length). Description: EMSA; EMSA: 10 mM HEPES pH 7.9, 50 mM NaCl, 4 mM MgCl2, 10% glycerol, 5 mM DTT, 0.2 mM EDTA, 0.1 mg/mL BSA, 10 ng/uL poly(dI-dC), 10 min 30 C. Conditions: protein: recombinant; tags: N-terminal His (pET28a); chain copies: 2; label: 32P.
Data set [11] concerns the target T1, HPV-11 E2 (full length). The data set can be described thus: EMSA; single complex C1; EMSA: 10 mM HEPES pH 7.9, 50 mM NaCl, 4 mM MgCl2, 10% glycerol, 5 mM DTT, 0.2 mM EDTA, 0.1 mg/mL BSA, 10 ng/uL poly(dI-dC), 10 min 30 C. Conditions: protein: recombinant; tags: N-terminal His (pET28a); chain copies: 2; label: 32P.
Data set [12] deals with T1, HPV-11 E2 (full length). The data set can be described thus: EMSA; C1, C2 and C3 complexes; EMSA: 10 mM HEPES pH 7.9, 50 mM NaCl, 4 mM MgCl2, 10% glycerol, 5 mM DTT, 0.2 mM EDTA, 0.1 mg/mL BSA, 10 ng/uL poly(dI-dC), 10 min 30 C. Conditions: protein: recombinant; tags: N-terminal His (pET28a); chain copies: 2; label: 32P.
Data set [13] concerns the target T1, HPV-11 E2 (full length). The data set can be described thus: EMSA; no complex at 80 nM E2; EMSA: 10 mM HEPES pH 7.9, 50 mM NaCl, 4 mM MgCl2, 10% glycerol, 5 mM DTT, 0.2 mM EDTA, 0.1 mg/mL BSA, 10 ng/uL poly(dI-dC), 10 min 30 C. The following applies: protein: recombinant; tags: N-terminal His (pET28a); chain copies: 2; label: 32P.
Data set [14] deals with T2, recombinant full-length HPV type 11 E2 protein (human papillomavirus type 11), P04015.
T2 chain: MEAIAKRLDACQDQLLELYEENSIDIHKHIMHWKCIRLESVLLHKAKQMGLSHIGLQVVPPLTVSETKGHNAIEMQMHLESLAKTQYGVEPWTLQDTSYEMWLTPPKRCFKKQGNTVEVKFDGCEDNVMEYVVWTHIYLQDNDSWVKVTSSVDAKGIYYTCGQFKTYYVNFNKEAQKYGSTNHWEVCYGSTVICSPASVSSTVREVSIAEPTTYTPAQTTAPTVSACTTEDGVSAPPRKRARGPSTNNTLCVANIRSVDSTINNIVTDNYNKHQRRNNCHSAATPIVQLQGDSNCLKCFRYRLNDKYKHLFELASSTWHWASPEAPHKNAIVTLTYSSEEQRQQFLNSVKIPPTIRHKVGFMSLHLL
The data set can be described thus: dynamic light scattering; purified E2 in solution at low (≤0.1 mg/mL) protein concentration; solvent set as 10% glycerol; three separate measurements; monomer to dimer. Conditions: remark: other sources report otherwise.

The target in data set [15] is T1, HPV-11 E2 (full length). Description: EMSA; affinity similar to BS1+2; C1, C2 and C3; EMSA: 10 mM HEPES pH 7.9, 50 mM NaCl, 4 mM MgCl2, 10% glycerol, 5 mM DTT, 0.2 mM EDTA, 0.1 mg/mL BSA, 10 ng/uL poly(dI-dC), 10 min 30 C. The following applies: protein: recombinant; tags: N-terminal His (pET28a); chain copies: 2; label: 32P.

B1: BS4 (dsDNA)
DNA 1: CTTGCAACCGTTTTCGGTTGCCCT
DNA 2: AGGGCAACCGAAAACGGTTGCAAG
For B1, the Kd worked out at 4.6 ± 0.4 nM in data set [1], 4.8 ± 0.7 nM in data set [2] and 4.4 ± 0.4 nM in data set [3].

B2: BS1 (dsDNA)
DNA 1: GGTTCAACCGAAAACGGTTATATG
DNA 2: CATATAACCGTTTTCGGTTGAACC
B2: the Kd in [4] was determined as 6.2 ± 1.4 nM; in data set [5], 6 ± 0.7 nM; in data set [1] it was 6.2 ± 1.4 nM; in data set [6], 5.7 ± 1.1 nM; in data set [2] it was 6.2 ± 0.9 nM; in data set [7], 5.5 ± 1.5 nM. Besides, the Kd in data set [8] was 7.3 ± 0.7 nM; in data set [9], 5.3 ± 0.4 nM.

B3: BS1 5' mutant (dsDNA)
DNA 1: CCTGCAACCGAAAACGGTTATATG
DNA 2: CATATAACCGTTTTCGGTTGCAGG
B3: the Kd in data set [10] was 6.4 ± 0.6 nM.

B4: BS1 5'+3' mutant (dsDNA)
DNA 1: CCTGCAACCGAAAACGGTTACCCA
DNA 2: TGGGTAACCGTTTTCGGTTGCAGG
For the molecule B4, the Kd in data set [10] was 7.7 ± 1.7 nM.

B5: BS1 (50 bp) (dsDNA)
DNA 1: GGAGGGATTGAAAACTTTTCAACCGAAAACGGTTATATATAAACCAGCCC
DNA 2: GGGCTGGTTTATATATAACCGTTTTCGGTTGAAAAGTTTTCAATCCCTCC
For the molecule B5, in data set [11], the Kd was determined as 5.3 ± 0.6 nM.

B6: BS1+2 (50 bp) (dsDNA)
DNA 1: GGCGGGACCGAAAACGGTTCAACCGAAAACGGTTATATATAAACCAGCCC
DNA 2: GGGCTGGTTTATATATAACCGTTTTCGGTTGAACCGTTTTCGGTCCCGCC
Consider B6, for which the Kd in [12] is 4.2 ± 0.3 nM.

B7: Non-specific (dsDNA)
DNA 1: TGGCGGACCCCACCCAGCCCCACGCGCA
DNA 2: TGCGCGTGGGGCTGGGTGGGGTCCGCCA
As for B7, the binding result in data set [13] is reported as “no binding”.

B8: BS2 (dsDNA)
DNA 1: GGAGGGACCGAAAACGGTTCAACC
DNA 2: GGTTGAACCGTTTTCGGTCCCTCC
B8: the Kd amounted to 6 ± 0.6 nM in [1] and 7.8 ± 0.7 nM in data set [2].

B9: BS4 with GTTT spacer (dsDNA)
DNA 1: CTTGCAACCGGTTTCGGTTGCCCT
DNA 2: AGGGCAACCGAAACCGGTTGCAAG
Regarding B9, the Kd in [10] worked out at 6.4 ± 0.6 nM.

B10: recombinant full-length HPV type 11 E2 protein, P04015 1-367 (natural protein)
chain: MEAIAKRLDACQDQLLELYEENSIDIHKHIMHWKCIRLESVLLHKAKQMGLSHIGLQVVPPLTVSETKGHNAIEMQMHLESLAKTQYGVEPWTLQDTSYEMWLTPPKRCFKKQGNTVEVKFDGCEDNVMEYVVWTHIYLQDNDSWVKVTSSVDAKGIYYTCGQFKTYYVNFNKEAQKYGSTNHWEVCYGSTVICSPASVSSTVREVSIAEPTTYTPAQTTAPTVSACTTEDGVSAPPRKRARGPSTNNTLCVANIRSVDSTINNIVTDNYNKHQRRNNCHSAATPIVQLQGDSNCLKCFRYRLNDKYKHLFELASSTWHWASPEAPHKNAIVTLTYSSEEQRQQFLNSVKIPPTIRHKVGFMSLHLL
With B10, the stoichiometry N in data set [14] was 2.

B11: BS3 (dsDNA)
DNA 1: CCTGCAACCGGTTTCGGTTACCCA
DNA 2: TGGGTAACCGAAACCGGTTGCAGG
As to B11, the Kd in data set [2] is 10.2 ± 1.7 nM.

B12: BS1+2+E1BS (124 bp) (dsDNA)
DNA 1: GTAACCCACACCCTACATATTTCCTTCTTATACTTAATAACAATCTTATTTAAAAAAGAGGAGGGACCGAAAACGGTTCAACCGAAAACGGTTATATATAAACCAGCCCAAAAAATTAGCAGA
DNA 2: TCTGCTAATTTTTTGGGCTGGTTTATATATAACCGTTTTCGGTTGAACCGTTTTCGGTCCCTCCTCTTTTTTAAATAAGATTGTTATTAAGTATAAGAAGGAAATATGTAGGGTGTGGGTTAC
For B12, the binding result in [15] is given as “binds”.

B13: BS1 3' mutant (dsDNA)
DNA 1: GGTTCAACCGAAAACGGTTACCCA
DNA 2: TGGGTAACCGTTTTCGGTTGAACC
For the molecule B13, the Kd in data set [10] was found to be 7.6 ± 0.6 nM.
